Results from patent US20240425601A1 (University of California, published 2024).

Target: cell surface-expressed human αvβ8 (human, UniProt P06756 31-1048; P26012 43-769)
Experiment: cell-based or functional assay

cell surface-expressed human αvβ8, sequence (P06756 31-1048, chain 1 of 2): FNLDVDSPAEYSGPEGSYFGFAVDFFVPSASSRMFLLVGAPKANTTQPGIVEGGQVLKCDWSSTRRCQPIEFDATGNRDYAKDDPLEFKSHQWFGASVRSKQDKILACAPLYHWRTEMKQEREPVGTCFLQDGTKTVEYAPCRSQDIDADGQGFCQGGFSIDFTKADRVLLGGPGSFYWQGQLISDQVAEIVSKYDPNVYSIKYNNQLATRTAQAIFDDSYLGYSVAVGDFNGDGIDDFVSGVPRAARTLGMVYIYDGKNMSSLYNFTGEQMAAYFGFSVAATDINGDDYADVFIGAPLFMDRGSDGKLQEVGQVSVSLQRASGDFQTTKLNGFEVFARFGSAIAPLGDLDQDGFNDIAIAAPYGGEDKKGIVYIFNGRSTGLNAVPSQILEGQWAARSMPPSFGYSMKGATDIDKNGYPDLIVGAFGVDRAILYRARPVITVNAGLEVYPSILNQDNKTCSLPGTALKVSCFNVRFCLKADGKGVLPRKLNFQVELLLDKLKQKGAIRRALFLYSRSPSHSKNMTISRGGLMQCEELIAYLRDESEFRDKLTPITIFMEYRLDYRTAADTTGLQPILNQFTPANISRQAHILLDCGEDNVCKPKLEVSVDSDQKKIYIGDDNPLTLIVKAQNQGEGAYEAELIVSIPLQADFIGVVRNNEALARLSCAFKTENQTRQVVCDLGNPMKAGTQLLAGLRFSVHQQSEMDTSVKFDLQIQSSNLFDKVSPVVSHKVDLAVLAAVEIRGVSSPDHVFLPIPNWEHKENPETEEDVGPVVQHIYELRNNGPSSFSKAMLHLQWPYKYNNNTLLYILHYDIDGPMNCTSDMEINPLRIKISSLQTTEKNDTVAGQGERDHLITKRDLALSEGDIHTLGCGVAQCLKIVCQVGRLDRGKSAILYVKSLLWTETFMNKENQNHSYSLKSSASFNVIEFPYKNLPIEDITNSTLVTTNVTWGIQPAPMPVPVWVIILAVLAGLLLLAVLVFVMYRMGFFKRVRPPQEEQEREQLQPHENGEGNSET
cell surface-expressed human αvβ8, sequence (P26012 43-769, chain 2 of 2): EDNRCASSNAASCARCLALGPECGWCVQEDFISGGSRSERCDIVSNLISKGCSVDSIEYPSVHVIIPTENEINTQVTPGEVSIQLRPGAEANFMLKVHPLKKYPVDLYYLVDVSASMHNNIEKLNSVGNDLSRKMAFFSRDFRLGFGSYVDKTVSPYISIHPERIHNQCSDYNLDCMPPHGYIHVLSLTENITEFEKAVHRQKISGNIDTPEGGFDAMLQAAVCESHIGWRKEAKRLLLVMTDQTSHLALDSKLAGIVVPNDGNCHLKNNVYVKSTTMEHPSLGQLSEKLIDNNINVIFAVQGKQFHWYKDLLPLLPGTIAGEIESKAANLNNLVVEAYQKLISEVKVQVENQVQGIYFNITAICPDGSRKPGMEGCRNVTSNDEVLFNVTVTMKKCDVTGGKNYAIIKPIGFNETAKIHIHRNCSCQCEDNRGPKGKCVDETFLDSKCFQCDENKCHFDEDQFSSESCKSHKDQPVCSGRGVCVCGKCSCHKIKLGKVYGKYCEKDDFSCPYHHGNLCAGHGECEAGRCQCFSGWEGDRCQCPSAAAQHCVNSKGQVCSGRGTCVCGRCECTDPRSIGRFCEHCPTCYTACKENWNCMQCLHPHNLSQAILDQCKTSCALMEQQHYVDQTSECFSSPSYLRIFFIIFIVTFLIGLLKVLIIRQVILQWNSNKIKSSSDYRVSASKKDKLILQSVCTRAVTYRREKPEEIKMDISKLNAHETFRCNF

- inhibition of adhesion of L229 cells expressing αvβ8 to TGFb1 LAP (potency against ADWA11): > 10 fold
B1: ADWA16 (antibody, V domains shown)
VH: QVQLQQSGAELAKPGASMKMSCKASGYTFSSYWIYWVKQRPGQGLEWIGYINPTTGYTEYNQKFRDKATLTADKSSNTAYMQLSSLTSEDSAVYYCATEGGNWEDYWGQGTTLTVSS
VL: DIQMTQTTSSLSASLGDRVTISCRASQDISNYLNWYQQKPDGTVKLLIYYTSRLYSGVPSRFSGSGSGTDYSLTISNLEPKDIATYYCQQFSELPRTFGGGTKLEIK
